According to IntAct's records for PubMed 20562859:

B1: Gamma-aminobutyric acid receptor-associated protein (Homo sapiens), O95166 (parent)
chain: MKFVYKEEHPFEKRRSEGEKIRKKYPDRVPVIVEKAPKARIGDLDKKKYLVPSDLTVGQFYFLIRKRIHLRAEDALFFFVNNVIPPTSATMGQLYQEHHEEDFFLYIAYSDESVYGL
partner: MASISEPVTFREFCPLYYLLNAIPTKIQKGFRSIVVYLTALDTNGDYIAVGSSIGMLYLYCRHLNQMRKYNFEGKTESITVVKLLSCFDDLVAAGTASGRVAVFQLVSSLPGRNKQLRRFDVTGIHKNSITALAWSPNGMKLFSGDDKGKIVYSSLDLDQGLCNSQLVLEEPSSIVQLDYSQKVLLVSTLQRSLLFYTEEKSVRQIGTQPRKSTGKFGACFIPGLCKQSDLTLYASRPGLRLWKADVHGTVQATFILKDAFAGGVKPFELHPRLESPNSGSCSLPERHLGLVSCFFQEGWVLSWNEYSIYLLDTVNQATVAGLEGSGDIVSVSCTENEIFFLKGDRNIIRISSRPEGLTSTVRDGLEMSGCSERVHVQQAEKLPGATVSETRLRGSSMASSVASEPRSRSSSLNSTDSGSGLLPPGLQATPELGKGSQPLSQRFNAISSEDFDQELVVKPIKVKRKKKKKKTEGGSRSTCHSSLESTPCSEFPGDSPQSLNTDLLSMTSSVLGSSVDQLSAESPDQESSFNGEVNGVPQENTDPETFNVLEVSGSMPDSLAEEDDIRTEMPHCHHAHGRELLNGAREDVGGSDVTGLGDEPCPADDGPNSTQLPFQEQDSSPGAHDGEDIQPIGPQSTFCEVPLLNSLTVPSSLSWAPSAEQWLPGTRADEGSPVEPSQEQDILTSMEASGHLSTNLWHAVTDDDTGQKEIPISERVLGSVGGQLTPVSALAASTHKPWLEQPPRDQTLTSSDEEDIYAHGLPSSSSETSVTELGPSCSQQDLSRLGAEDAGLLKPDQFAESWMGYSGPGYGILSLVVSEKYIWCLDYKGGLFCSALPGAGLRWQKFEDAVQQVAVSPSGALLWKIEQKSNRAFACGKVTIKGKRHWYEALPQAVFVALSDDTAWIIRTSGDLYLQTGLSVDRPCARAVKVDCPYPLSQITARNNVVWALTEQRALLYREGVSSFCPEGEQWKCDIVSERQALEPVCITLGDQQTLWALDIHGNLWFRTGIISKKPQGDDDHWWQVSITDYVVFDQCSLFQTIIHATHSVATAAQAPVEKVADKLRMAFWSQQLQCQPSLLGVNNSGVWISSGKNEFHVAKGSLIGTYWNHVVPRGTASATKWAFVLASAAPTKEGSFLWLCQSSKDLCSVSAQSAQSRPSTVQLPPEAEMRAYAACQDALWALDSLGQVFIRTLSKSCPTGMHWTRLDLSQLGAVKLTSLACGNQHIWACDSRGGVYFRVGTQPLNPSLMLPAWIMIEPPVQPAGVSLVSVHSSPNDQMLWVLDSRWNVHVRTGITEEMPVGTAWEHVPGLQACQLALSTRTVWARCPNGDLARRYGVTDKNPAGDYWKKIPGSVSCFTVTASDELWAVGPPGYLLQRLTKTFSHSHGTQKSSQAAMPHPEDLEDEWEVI
B2: Gamma-aminobutyric acid receptor-associated protein (Homo sapiens), O95166 (parent)
chain: B1 chain
partner: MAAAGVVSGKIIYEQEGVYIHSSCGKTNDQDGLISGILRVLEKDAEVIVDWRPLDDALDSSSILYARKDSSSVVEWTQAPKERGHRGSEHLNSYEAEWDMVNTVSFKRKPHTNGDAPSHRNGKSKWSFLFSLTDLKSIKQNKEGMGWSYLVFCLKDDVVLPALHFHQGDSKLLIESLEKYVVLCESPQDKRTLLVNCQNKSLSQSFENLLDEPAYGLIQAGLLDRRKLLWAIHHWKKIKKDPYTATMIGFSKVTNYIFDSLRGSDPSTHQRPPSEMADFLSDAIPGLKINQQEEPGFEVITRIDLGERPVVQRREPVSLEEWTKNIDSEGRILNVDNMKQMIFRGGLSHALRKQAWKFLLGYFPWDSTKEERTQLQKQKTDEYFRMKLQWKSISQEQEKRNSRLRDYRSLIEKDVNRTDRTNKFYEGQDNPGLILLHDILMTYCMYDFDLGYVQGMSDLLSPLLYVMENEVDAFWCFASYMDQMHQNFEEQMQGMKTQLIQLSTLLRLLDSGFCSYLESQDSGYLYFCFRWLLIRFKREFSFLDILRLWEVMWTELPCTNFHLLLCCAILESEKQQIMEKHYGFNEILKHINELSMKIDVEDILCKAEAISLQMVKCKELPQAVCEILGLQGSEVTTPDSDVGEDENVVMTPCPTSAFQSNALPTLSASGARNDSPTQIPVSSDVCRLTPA
B3: Gamma-aminobutyric acid receptor-associated protein (Homo sapiens), O95166 (parent)
chain: B1 chain
partner: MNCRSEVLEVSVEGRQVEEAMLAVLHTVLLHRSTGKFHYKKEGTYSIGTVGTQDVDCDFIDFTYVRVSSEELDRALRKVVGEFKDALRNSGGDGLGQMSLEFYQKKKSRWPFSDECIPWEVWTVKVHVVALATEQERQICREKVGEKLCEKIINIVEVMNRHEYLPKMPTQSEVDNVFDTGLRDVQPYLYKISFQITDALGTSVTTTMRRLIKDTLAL
B4: Gamma-aminobutyric acid receptor-associated protein (Homo sapiens), O95166 (parent)
chain: B1 chain
partner: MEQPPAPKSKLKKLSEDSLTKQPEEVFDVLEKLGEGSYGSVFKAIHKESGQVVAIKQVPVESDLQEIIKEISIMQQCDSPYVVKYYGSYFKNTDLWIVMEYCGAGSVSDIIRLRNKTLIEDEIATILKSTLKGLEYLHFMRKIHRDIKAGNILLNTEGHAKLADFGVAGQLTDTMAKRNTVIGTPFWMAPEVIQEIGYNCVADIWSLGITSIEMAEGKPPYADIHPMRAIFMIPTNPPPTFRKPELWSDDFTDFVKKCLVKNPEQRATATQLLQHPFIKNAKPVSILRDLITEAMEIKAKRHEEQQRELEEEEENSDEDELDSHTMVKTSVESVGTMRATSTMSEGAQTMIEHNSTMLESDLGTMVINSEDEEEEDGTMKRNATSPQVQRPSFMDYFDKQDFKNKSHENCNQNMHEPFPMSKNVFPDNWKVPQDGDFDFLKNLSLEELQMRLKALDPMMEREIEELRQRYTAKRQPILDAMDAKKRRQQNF
B5: Gamma-aminobutyric acid receptor-associated protein (Homo sapiens), O95166 (parent)
chain: B1 chain
partner: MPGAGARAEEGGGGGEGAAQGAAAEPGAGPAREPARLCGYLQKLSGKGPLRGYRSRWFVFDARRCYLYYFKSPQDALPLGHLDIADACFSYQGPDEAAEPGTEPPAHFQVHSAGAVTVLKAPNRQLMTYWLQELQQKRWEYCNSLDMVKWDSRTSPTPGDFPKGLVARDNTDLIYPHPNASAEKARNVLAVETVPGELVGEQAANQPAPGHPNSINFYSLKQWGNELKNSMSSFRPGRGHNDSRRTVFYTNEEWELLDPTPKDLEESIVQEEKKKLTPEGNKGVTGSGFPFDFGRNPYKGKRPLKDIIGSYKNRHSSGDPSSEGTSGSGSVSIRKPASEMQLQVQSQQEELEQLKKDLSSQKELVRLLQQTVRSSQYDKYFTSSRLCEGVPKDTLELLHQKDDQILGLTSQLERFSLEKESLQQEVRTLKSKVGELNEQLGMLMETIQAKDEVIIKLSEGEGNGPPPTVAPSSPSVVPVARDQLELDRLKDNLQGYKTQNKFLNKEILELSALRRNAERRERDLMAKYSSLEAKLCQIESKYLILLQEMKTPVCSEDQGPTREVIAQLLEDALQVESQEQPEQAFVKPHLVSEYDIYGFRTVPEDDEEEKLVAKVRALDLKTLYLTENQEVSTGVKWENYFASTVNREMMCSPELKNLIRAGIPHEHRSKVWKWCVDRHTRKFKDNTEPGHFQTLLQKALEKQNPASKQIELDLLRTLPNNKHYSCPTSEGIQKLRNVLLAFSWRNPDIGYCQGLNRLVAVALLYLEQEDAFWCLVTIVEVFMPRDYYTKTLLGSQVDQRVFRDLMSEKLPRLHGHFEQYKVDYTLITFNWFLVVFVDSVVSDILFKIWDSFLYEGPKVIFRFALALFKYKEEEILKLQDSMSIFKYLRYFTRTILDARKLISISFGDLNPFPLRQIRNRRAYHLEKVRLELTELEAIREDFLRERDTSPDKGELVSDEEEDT
B6: Gamma-aminobutyric acid receptor-associated protein (Homo sapiens), O95166 (parent)
chain: B1 chain
partner: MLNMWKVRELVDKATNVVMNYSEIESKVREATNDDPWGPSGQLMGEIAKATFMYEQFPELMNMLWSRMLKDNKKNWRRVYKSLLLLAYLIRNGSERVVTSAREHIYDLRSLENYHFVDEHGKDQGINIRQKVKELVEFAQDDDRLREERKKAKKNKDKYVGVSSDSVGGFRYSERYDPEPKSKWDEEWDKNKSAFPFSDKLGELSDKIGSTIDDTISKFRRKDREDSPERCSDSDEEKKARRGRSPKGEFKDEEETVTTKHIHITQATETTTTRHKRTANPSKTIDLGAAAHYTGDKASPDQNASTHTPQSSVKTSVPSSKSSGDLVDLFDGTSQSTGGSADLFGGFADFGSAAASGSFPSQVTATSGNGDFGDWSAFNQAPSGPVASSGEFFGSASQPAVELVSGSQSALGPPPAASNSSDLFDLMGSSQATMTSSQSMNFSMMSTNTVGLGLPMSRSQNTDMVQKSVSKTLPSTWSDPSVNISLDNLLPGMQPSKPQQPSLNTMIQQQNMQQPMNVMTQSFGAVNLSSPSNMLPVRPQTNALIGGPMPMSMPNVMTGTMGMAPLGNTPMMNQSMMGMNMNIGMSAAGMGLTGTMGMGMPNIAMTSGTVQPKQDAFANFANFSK

Variants of: B1
Conditions: with tcpr2_human TECPR2, O15040

effect of a mutation on the interaction | Variant
decreasing interaction | Y49A;L50A

Variants of: B2
Conditions: with tbc15_human TBC1D15, Q8TC07

effect of a mutation on the interaction | Variant
disrupting interaction | Y49A;L50A

Variants of: B3
Conditions: with atga1_human ATG101, Q9BSB4

effect of a mutation on the interaction | Variant
increasing interaction | R71A
increasing interaction | Y49A;L50A

Variants of: B4
Conditions: with stk3_human STK3, Q13188

effect of a mutation on the interaction | Variant
decreasing interaction | Y49A;L50A

Variants of: B5
Conditions: with tbd2b_human TBC1D2B

effect of a mutation on the interaction | Variant
decreasing interaction | Y49A;L50A

Variants of: B6
Conditions: with epn4_human CLINT1, Q14677

effect of a mutation on the interaction | Variant
decreasing interaction | Y49A;L50A
